From patent US7786083B2, “Metastin derivatives and use thereof” (Takeda Pharmaceutical Company Limited, priority 2006, dated 2010)
*1 amine or outer side, *2 acyl side, *3 side chain or, on linkers, in order; H or OH if unused. Where a SMILES comes first, the peptide text is derived from it. [ ]: non-standard residue; d: D form. Glyψ(E-CHCH)Leu = CC(C)C[C@H](/C=C/CN[*:1])C(=O)[*:2]; Ser(Me) = O-methylserine, COC[C@H](N[*:1])C(=O)[*:2]; Arg(Me) = CNC(=N)NCCC[C@H](N)C(=O)O; Dap(CONH2) = NC(=O)NC[C@H](N)C(=O)O; Ala(cPr) = N[C@@H](CC1CC1)C(=O)O; Hyp = O=C(O)[C@@H]1C[C@@H](O)CN1; Cha = N[C@@H](CC1CCCCC1)C(=O)O; Cba = N[C@@H](CC1CCC1)C(=O)O; Dap = NC[C@H](N)C(=O)O; Aib = CC(C)(N)C(=O)O

B1: des(1)-Ac-[D-Tyr2,Hyp3,Thr5,Cha6,Ala(cPr)8,Trp10]MS10 (peptide)
peptide: Ac-[dY][Hyp]NT[Cha]G[Ala(cPr)]RW-NH2
SMILES: CC(=O)N[C@H](Cc1ccc(O)cc1)C(=O)N1C[C@H](O)C[C@H]1C(=O)N[C@@H](CC(N)=O)C(=O)N[C@H](C(=O)N[C@@H](CC1CCCCC1)C(=O)NCC(=O)N[C@@H](CC1CC1)C(=O)N[C@@H](CCCNC(=N)N)C(=O)N[C@@H](Cc1c[nH]c2ccccc12)C(N)=O)[C@@H](C)O
B2: des(1)-Ac-[D-Tyr2,Hyp3,Thr5,Cha6,8,Arg(Me)9,Trp10]MS10 (peptide)
peptide: Ac-[dY][Hyp]NT[Cha]G[Cha][Arg(Me)]W-NH2
SMILES: CNC(=N)NCCC[C@H](NC(=O)[C@H](CC1CCCCC1)NC(=O)CNC(=O)[C@H](CC1CCCCC1)NC(=O)[C@@H](NC(=O)[C@H](CC(N)=O)NC(=O)[C@@H]1C[C@@H](O)CN1C(=O)[C@@H](Cc1ccc(O)cc1)NC(C)=O)[C@@H](C)O)C(=O)N[C@@H](Cc1c[nH]c2ccccc12)C(N)=O
B3: des(1)-Ac-[D-Tyr2,Glu3,Thr5,Cha6,Ala(cPr)8,Trp10]MS10 (peptide)
peptide: Ac-[dY]ENT[Cha]G[Ala(cPr)]RW-NH2
SMILES: CC(=O)N[C@H](Cc1ccc(O)cc1)C(=O)N[C@@H](CCC(=O)O)C(=O)N[C@@H](CC(N)=O)C(=O)N[C@H](C(=O)N[C@@H](CC1CCCCC1)C(=O)NCC(=O)N[C@@H](CC1CC1)C(=O)N[C@@H](CCCNC(=N)N)C(=O)N[C@@H](Cc1c[nH]c2ccccc12)C(N)=O)[C@@H](C)O
B4: des(1)-Ac-[D-Tyr2,Hyp3,Thr5,Cha6,Ala(cBu)8,Arg(Me)9,Trp10]MS10 (peptide)
peptide: Ac-[dY][Hyp]NT[Cha]G[Cba][Arg(Me)]W-NH2
SMILES: CNC(=N)NCCC[C@H](NC(=O)[C@H](CC1CCC1)NC(=O)CNC(=O)[C@H](CC1CCCCC1)NC(=O)[C@@H](NC(=O)[C@H](CC(N)=O)NC(=O)[C@@H]1C[C@@H](O)CN1C(=O)[C@@H](Cc1ccc(O)cc1)NC(C)=O)[C@@H](C)O)C(=O)N[C@@H](Cc1c[nH]c2ccccc12)C(N)=O

What was measured:
[1] = system: metastin receptors; test: Measurement of agonist activity by assaying changes in intracellular calcium ion level (FLIPR, Fluo-4 NW); assay type: cell-based, human; settings: specific activity of the EC50 of a test compound based on the EC50 of Metastin (45-54), metastin receptor expression CHO cells
Protocol: 1) Preparation of Human Metastin and Rat Metastin Stable Expression Cell Lines
Human metastin and rat metastin stable expression cell lines were obtained by transfecting the expression plasmid for animal cells into CHO/dhfr^− cells using CellPhect Transfection Kit (manufactured by GE Healthcare). First, 240 μL of Buffer A (attached to CellPhect Transfection Kit) was added to 9.6 μg of plasmid DNA dissolved in 240 μL of distilled water followed by stirring. After the mixture was settled for 10 minutes, 480 μL of Buffer B (attached to CellPhect Transfection Kit) was added to the mixture, which was vigorously stirred to form liposomes containing the DNA. Then, 4×10^5 CHO/dhfr^− cells (obtained from ATCC) were inoculated on a 60 mm Petri dish. After culturing the cells in Ham's F-12 medium (manufactured by Nissui Seiyaku Co., Ltd.) supplemented with 10% fetal bovine serum (manufactured by BIO […], Inc.) at 37° C. for 2 days in 5% carbon dioxide gas, […] of the liposomes were dropwise added to the cells on the Petri dish. After culturing the cells in a CO2 incubator (5% CO2, 37° C.) for 6 hours, the cells were washed twice with serum-free Ham's F-12 medium and 3 mL of 15% glycerol was added to the cells on the Petri dish followed by treatment for 2 minutes. The cells were again washed twice with serum-free Ham's F-12 medium followed by incubation in Ham's F-12 medium supplemented with 10% fetal bovine serum in a CO2 incubator (5% CO2, 37° C.) for 15 hours. The cells were dispersed by trypsin treatment to recover from the Petri dish. The recovered cells were inoculated on a 6-well plate in 1.25×10^4 cells each/well and incubation was initiated in a CO2 incubator (5% CO2, 37° C.) in Dulbecco's modified Eagle medium (DMEM, manufactured by Nissui Seiyaku) containing 10% dialyzed fetal bovine serum (manufactured by JRH BIOSCIENCES, Inc.). The plasmid-transfected CHO transformants grew in the medium but the non-transfected cells gradually died, accordingly the medium was exchanged on Days 1 and 2 after the initiation of incubation to remove the dead cells. Approximately 20 colonies of the CHO transformants that kept growing on Days 8 to 10 after the incubation were isolated. From the cells in these colonies, cells showing high reactivity with the ligand peptide metastin (hereinafter merely referred to as h175 KB19 and h175 KB29 strains) were selected to provide for the following experiment.
Human metastin expression CHO cell line (h175 KB19 strain is described in a separate section) and rat metastin expression CHO cell line (h175 KB29 strain is described in a separate section) were seeded in a 96-well plate (type 3904, manufactured by Corning) at 3×10^4 cells/well, followed by incubation in a CO2 incubator (5% CO2, 37° C.) for 24 hours. For the medium, MEMα medium (nucleic acid-free, manufactured by Nikken Bio Medical Laboratory) supplemented with dialyzed 10% fetal bovine serum (manufactured by Thermo, MultiSer) was used.
3) Loading with Fluo-4 NW in Cells
As an assay buffer, 1× Hanks' balanced salt solution (HBSS, manufactured by GIBCO) supplemented with 0.1% BSA, 20 mM HEPES (pH 7.4, manufactured by GIBCO) and 1 mM Probenecid (manufactured by Molecular Probes) was prepared. The medium in the wells of the cell-seeded plate was removed and 100 μL each of the assay buffer (kept warm at 37° C.) was added to each well. After 10 mL of the assay buffer (the volume for assaying two plates) was charged in one Fluo-4NW dye mix (Component A, Fluo-4 NW calcium assay kit (starter pack), manufactured by Molecular Probes) bottle, the mixture was gently stirred to prepare the Fluo-4 NW loading solution. This loading solution was charged in each well by 50 μl each and reacted in a CO2 incubator (5% CO2, 37° C.) for 30 minutes for loading with Fluo-4 NW into the cells. Subsequently, the cells were settled at room temperature (25° C.) for 15 minutes and then used for assay.
4) Measurement of Agonist Activity […]

[2] = target: metastin receptor (OT7T175) stably expressed on CHO/dhfr- cells (human or rat, not given); test: cell-based or functional assay

Molecule	Specific Activity [1]	Specific Activity (EC50 of test compound based on EC50 of Metastin (45-54)); agonist activity, intracellular calcium ion level, FLIPR (ratio to Metastin (45-54)) [2]
CNC(=N)NCCC[C@H](NC(=O)[C@@H](/C=C/CNC(=O)[C@H](CC1CCCCC1)NC(=O)[C@@H](NC(=O)[C@H](CC(N)=O)NC(=O)[C@H](CCC(=O)O)NC(=O)[C@@H](Cc1ccc(O)cc1)NC(C)=O)[C@@H](C)O)CC(C)C)C(=O)N[C@@H](Cc1c[nH]c2ccccc12)C(N)=O [Compound No. 904, des(1)-Ac-[D-Tyr2,Glu3,Thr5,Cha6,Gly7Ψ((E)CH═CH)Leu8,Arg(Me)9,Trp10]MS10] (Ac-[dY]ENT[Cha][Glyψ(E-CHCH)Leu][Arg(Me)]W-NH2)	0.5	–
CNC(=N)NCCC[C@H](NC(=O)[C@H](CC1CC1)NC(=O)CNC(=O)[C@H](CC1CCCCC1)NC(=O)[C@H](CN)NC(=O)[C@H](CNC(N)=O)NC(=O)[C@@H]1C[C@@H](O)CN1C(=O)[C@@H](Cc1ccc(O)cc1)NC(C)=O)C(=O)N[C@@H](Cc1c[nH]c2ccccc12)C(N)=O [Compound No. 951, des(1)-Ac-[D-Tyr2,Hyp3,Alb4,Dap5,Cha6,Ala(cPr)8,Arg(Me)9,Trp10]MS10] (Ac-[dY][Hyp][Dap(CONH2)][Dap][Cha]G[Ala(cPr)][Arg(Me)]W-NH2)	0.7	–
CNC(=N)NCCC[C@H](NC(=O)[C@H](CC(C)C)NC(=O)C(C)(C)NC(=O)[C@H](Cc1ccccc1)NC(=O)[C@@H](NC(=O)[C@H](CC(N)=O)NC(=O)[C@@H]1C[C@@H](O)CN1C(=O)[C@@H](Cc1ccc(O)cc1)NC(C)=O)[C@@H](C)O)C(=O)N[C@@H](Cc1c[nH]c2ccccc12)C(N)=O [Compound No. 811, des(1)-Ac-[D-Tyr2,Hyp3,Thr5,Aib7,Arg(Me)9,Trp10]MS10] (Ac-[dY][Hyp]NTF[Aib]L[Arg(Me)]W-NH2)	1.5	–
B1	–	0.5
B2	–	3.5
Ac-[dY][Hyp][Dap(CONH2)]T[Cha]GL[Arg(Me)]W-NH2 (also: Gly6-Leu7 -CONH- replaced by -CH2CH2-) [des(1)-Ac-[D-Tyr2,Hyp3,Alb4,Thr5,Cha6,Gly7Ψ(CH2CH2)Leu8,Arg(Me)9,Trp10]MS10]	–	1.1
B3	–	0.4
Ac-[dY][Hyp]NT[Cba]G[Ala(cPr)][Arg(Me)]W-NH2 [des(1)-Ac-[D-Tyr2,Hyp3,Thr5,Ala(cBu)6,Ala(cPr)8,Arg(Me)9,Trp10]MS10]	–	0.7
Ac-[dY][Hyp]NT[Cha]GLRW-NH2 (also: Gly6-Leu7 -CONH- replaced by -CH2CH2-) [des(1)-Ac-[D-Tyr2,Hyp3,Thr5,Cha6,Gly7Ψ(CH2CH2)Leu8,Trp10]MS10]	–	1.1
Ac-[dY][Hyp][Dap(CONH2)]G[Cha]G[Ala(cPr)][Arg(Me)]W-NH2 [des(1)-Ac-[D-Tyr2,Hyp3,Alb4,Gly5,Cha6,Ala(cPr)8,Arg(Me)9,Trp10]MS10]	–	0.7
Ac-[dY][Hyp][Dap(CONH2)]T[Cha]GLRW-NH2 (also: Gly6-Leu7 -CONH- replaced by -CH2CH2-) [des(1)-Ac-[D-Tyr2,Hyp3,Alb4,Thr5,Cha6,Gly7Ψ(CH2CH2)Leu8,Trp10]MS10]	–	1.3
Ac-[dY][Hyp]NTFGL[Arg(Me)]W-NH2 (also: Phe5-Gly6 amide bond replaced by -CH2S-) [des(1)-Ac-[D-Tyr2,Hyp3,Thr5,Phe6Ψ(CH2S)Gly7,Arg(Me)9,Trp10]MS10]	–	0.7
Ac-[dY][Hyp][Dap(CONH2)]T[Cha]G[Ala(cPr)][Arg(Me)]W-NH2 [des(1)-Ac-[D-Tyr2,Hyp3,Alb4,Thr5,Cha6,Ala(cPr)8,Arg(Me)9,Trp10]MS10]	–	0.5
Ac-[dY][Hyp][Dap(CONH2)]A[Cha]G[Ala(cPr)][Arg(Me)]W-NH2 [des(1)-Ac-[D-Tyr2,Hyp3,Alb4,Ala5,Cha6,Ala(cPr)8,Arg(Me)9,Trp10]MS10]	–	0.5
Ac-[dY][Hyp]NTF[Ser(Me)]L[Arg(Me)]W-NH2 [des(1)-Ac-[D-Tyr2,Hyp3,Thr5,Ser(Me)7,Arg(Me)9,Trp10]MS10]	–	1.2
B4	–	0.5
Ac-[dY][Hyp][Dap(CONH2)][Dap][Cha]G[Ala(cPr)][Arg(Me)]W-NH2 [des(1)-Ac-[D-Tyr2,Hyp3,Alb4,Dap5,Cha6,Ala(cPr)8,Arg(Me)9,Trp10]MS10]	–	0.7
Ac-[dY][Hyp][Dap(CONH2)]S[Cha]G[Ala(cPr)][Arg(Me)]W-NH2 [des(1)-Ac-[D-Tyr2,Hyp3,Alb4,Ser5,Cha6,Ala(cPr)8,Arg(Me)9,Trp10]MS10]	–	0.5
